# Patent US7078382B1, “Modulation of eNOS activity and therapeutic uses thereof” (Genentech, Inc., priority 1999, dated 2006)
# Residue numbers refer to the chain shown, from its start. Names and notes keep the numbering of the source. “Also recorded” adds a separate entry of the source.
# B1: PLGF: recombinant human placental growth factor (protein, UniProt P49763 19-221, looked up)
# Placenta growth factor: LPAVPPQQWALSAGNGSSEVEVVPFQEVWGRSYCRALERLVDVVSEYPSEVEHMFSPSCVSLLRCTGCCGDENLHCVPVETANVTMQLLKIRSGDRPSYVELTFSQHVRCECRHSPGRQSPDMPGDFRADAPSFLPPRRSLPMLFRMEWGCALTGSQSAVWPSSPVPEEIPRMHPGRNGKKQQRKPLREKMKPERCGDAVPRR
# B2: LK-VRB-4s: VEGF (1-109) variant, F17I/M18E/Y21F/Q22E/Y25I (protein)
# chain: APMAEGGGQNHHEVVKIEDVFERSICHPIETLVDIFQEYPDEIEYIFKPSCVPLMRCGGCCNDEGLECVPTEESNITMQIMRIKPHQGQHIGEMSFLQHNKCECRPKKD
# B3: LK-VRB-7s*: VEGF (1-109) variant, M18E/D63S/G65M/L66R (protein)
# chain: B2 chain with I17F, F21Y, E22Q, I25Y, D63S, G65M, L66R
# B4: LK-VRB-15s: VEGF (1-109) variant, Y21L/Y25S/D63S/G65M/L66R (protein)
# chain: B2 chain with I17F, E18M, F21L, E22Q, I25S, D63S, G65M, L66R
# B5: LK-VRB-17s: VEGF (1-109) variant, M18E/Y21L/Q22R/D63S/G65M/L66R (protein)
# chain: B2 chain with I17F, F21L, E22R, I25Y, D63S, G65M, L66R
# B6: LK-VRB-14s: VEGF (1-109) variant, Y21L/Q22R/D63S/G65M/L66R (protein)
# chain: B2 chain with I17F, E18M, F21L, E22R, I25Y, D63S, G65M, L66R
# B7: LK-VRB-25s: VEGF (1-109) variant, D63S/L66R/M18E/Y21L/Q22R/Y25S (protein)
# chain: B2 chain with I17F, F21L, E22R, I25S, D63S, L66R
# B8: LK-VRB-8s*: VEGF (1-109) variant, Y2IL/D63S/G65M/LG6R as printed (protein)
# chain: B2 chain with I17F, E18M, F21L, E22Q, I25Y, D63S, G65M, L66R
# B9: LK-VRB-19s: VEGF (1-109) variant, M18E/Q22R/Y25S/D63S/G65M/L66R as printed (same as 18s) (protein)
# chain: B2 chain with I17F, F21Y, E22R, I25S, D63S, G65M, L66R
# B10: LK-VRB-16s: VEGF (1-109) variant, Q22R/Y25S/D63S/G65M/L66R (protein)
# chain: B2 chain with I17F, E18M, F21Y, E22R, I25S, D63S, G65M, L66R
# B11: LK-VRB-13s: VEGF (1-109) variant, M18E/Y25S/D63S/G65M/L66R (protein)
# chain: B2 chain with I17F, F21Y, E22Q, I25S, D63S, G65M, L66R
# B12: LK-VRB-12s: VEGF (1-109) variant, M18E/Q22R/D63S/G65M/L66R (protein)
# chain: B2 chain with I17F, F21Y, E22R, I25Y, D63S, G65M, L66R
# B13: LK-VRB-11s: VEGF (1-109) variant, M18E/Y21L/D63S/G65M/L66R (protein)
# chain: B2 chain with I17F, F21L, E22Q, I25Y, D63S, G65M, L66R
# B14: LK-VRB-21s: VEGF (1-109) variant, D63S/M18E/Y21L/Q22R/Y25S (protein)
# chain: B2 chain with I17F, F21L, E22R, I25S, D63S
# B15: LK-VRB-10s: VEGF (1-109) variant, Y25S/D63S/G65M/L66R (protein)
# chain: B2 chain with I17F, E18M, F21Y, E22Q, I25S, D63S, G65M, L66R
# B16: LK-VRB-24s: VEGF (1-109) variant, D63S/G65M/M18E/Y21L/Q22R/Y25S (protein)
# chain: B2 chain with I17F, F21L, E22R, I25S, D63S, G65M
# B17: LK-VRB-20s: VEGF (1-109) variant, Y21L/Q22R/Y25S/D63S/G65M/L66R (protein)
# chain: B2 chain with I17F, E18M, F21L, E22R, I25S, D63S, G65M, L66R
# B18: LK-VRB-3s: VEGF (1-109) variant, F17I/M18E/Y21F/Q22K/Y25S (protein)
# chain: B2 chain with E22K, I25S
# B19: LK-VRB-26s: VEGF (1-109) variant, G65M/L66R/M18E/Y21L/Q22R/Y25S (protein)
# chain: B2 chain with I17F, F21L, E22R, I25S, G65M, L66R
# B20: LK-VRB-23s: VEGF (1-109) variant, L66R/M185/Y21L/Q22R/Y25S as printed (protein)
# chain: B2 chain with I17F, F21L, E22R, I25S, L66R
# B21: LK-VRB-22s: VEGF (1-109) variant, GG5M/M18E/Y21L/Q22R/Y25S as printed (protein)
# chain: B2 chain with I17F, F21L, E22R, I25S, G65M
# B22: LK-VRB-9s: VEGF (1-109) variant, Q22R/D63S/G65M/L66R (protein)
# chain: B2 chain with I17F, E18M, F21Y, E22R, I25Y, D63S, G65M, L66R
# System: eNOS expression
# Assay: eNOS expression by Western blot in ACE cells
# Type: cell-based, bovine
# Details: equal concentrations, two days
# Description: At the end of incubation, total cell lysates were prepared, and eNOS protein levels were determined by Western blot analysis.
# Bovine adrenal cortex capillary endothelial cells (ACE) were prepared and maintained as previously described (Ferrara et.al., 1989 Biochem. Biophys. Res. Commun. 161:851–858). Briefly, cells were plated onto 6-well tissue culture plates (Costar) and grown in low glucose Dulbecco's modified Eagle's medium, supplemented with 2 mM […] (Life Technologies), 10% bovine calf serum (HyClone Lab., Inc.) and 100 μg/ml Penicillin/Streptomycin (Life Technologies). ACE cells were used between passages 4 and 8.
# Medium was changed every 24 hours.
# The methods for cell lysis and Western blot (WB) have been described in Shen et al., 1998 J. Biol. Chem. 273:29979–29985. A monoclonal anti-eNOS antibody was used at 1:2500 to probe eNOS protein. […] The protein bands were scanned by a densitometer and the relative intensities were quantified using IMAGEQUANT® software (Molecular Dynamics).
# Confluent ACE cells were incubated with 500 pM rhVEGF. […] Equal amounts of protein were denatured under reducing conditions and separated in a 10% Novex mini gel and transferred to PVDF membrane. eNOS protein signals were visualized by ECL and quantified using densitometry.
row,Molecule,eNOS expression with VEGF forms and receptor-selective variants
1,B1,had no effect; also recorded: did not

# Target: KDR receptor (Homo sapiens, UniProt P35968)
# Sequence (P35968 20-327 limits assumed): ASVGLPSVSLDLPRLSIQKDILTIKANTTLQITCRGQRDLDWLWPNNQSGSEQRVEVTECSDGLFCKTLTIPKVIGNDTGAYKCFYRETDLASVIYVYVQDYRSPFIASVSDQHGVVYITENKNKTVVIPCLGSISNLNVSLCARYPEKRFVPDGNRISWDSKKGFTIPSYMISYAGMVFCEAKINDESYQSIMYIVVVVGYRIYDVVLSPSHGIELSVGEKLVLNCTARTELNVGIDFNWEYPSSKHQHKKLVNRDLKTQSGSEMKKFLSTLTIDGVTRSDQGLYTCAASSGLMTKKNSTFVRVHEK
# Assay: KDR receptor binding ELISA (inhibition of biotinylated native VEGF (8-109) binding)
# Details: second figure of the cell, ratio to native VEGF (8-109)
# Description: Receptor binding assays were performed in 96-well immunoplates (Maxisorp, Nunc-Immunoplate, Nalge Nunc International, Rochester, N.Y.). Each well was coated with 100 μl of a solution containing 8 μg/ml of a monoclonal antibody to KDR known as MAKD5 (Genentech, South San Francisco, Calif.) in 50 mM carbonate buffer at pH 9.6 and incubated at 4° C. overnight. The supernatant was discarded, the wells were washed three times in washing buffer (0.05% Tween 20 in PBS), and the plate was blocked (150 μl per well) with block buffer (0.5% BSA, 0.01% thimerosal in PBS) at room temperature for one hour. The supernatant was discarded, and the wells were washed.
# (§1) Aliquots of this mixture (100 μl) were added to the precoated microtiter wells and the plate was incubated for 1 hour at room temperature. […] The wells were then incubated with 3, 3′, 5,5′-tetramethyl benzidine (0.2 gram/liter; Kirkegaard & Perry Laboratories, Gaithersburg, Md.) for about 10 minutes at room temperature. Absorbance was read at 450 nm on a Vmax plate reader (Molecular Devices, Menlo Park, Calif.).
# (§2) Titration curves were fit with a four-parameter nonlinear regression curve-fitting program (KaleidaGraph, Synergy Software, Reading, Pa.).
row,Molecule,Relative Binding Affinity KDR Receptor
1,B2,1 nM/1
2,B3,1 nM/1
3,B4,2 nM/2
4,B5,3 nM/3
5,B6,0.5 nM/0.5
6,B7,4 nM/4
7,B8,0.5 nM/0.5
8,B9,7 nM/7
9,B10,0.6 nM/0.6
10,B11,14 nM/14
11,B12,0.4 nM/0.4
12,B13,2 nM/2
13,B14,3 nM/3
14,B15,0.5 nM/0.5
15,B16,10 nM/10
16,B17,2 nM/2
17,B18,1 nM/1
18,B19,23 nM/23
19,B20,11 nM/11
20,B21,4 nM/4
21,B22,0.5 nM/0.5

# System: Flt-1 receptor
# Sequence (P17948 27-327 limits assumed): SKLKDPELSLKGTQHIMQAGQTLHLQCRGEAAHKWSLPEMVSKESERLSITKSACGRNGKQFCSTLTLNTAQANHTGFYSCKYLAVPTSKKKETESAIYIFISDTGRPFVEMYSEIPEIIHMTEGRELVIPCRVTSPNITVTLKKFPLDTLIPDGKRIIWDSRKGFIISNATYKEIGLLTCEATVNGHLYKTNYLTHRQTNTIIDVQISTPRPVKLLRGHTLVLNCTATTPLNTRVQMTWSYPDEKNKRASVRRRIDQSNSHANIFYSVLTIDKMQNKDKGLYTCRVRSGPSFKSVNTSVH
# Assay: Flt-1 receptor binding ELISA (inhibition of biotinylated native VEGF binding to Flt-IgG)
# Details: second figure of the cell, ratio to native VEGF (8-109)
# Description: Receptor binding assays were performed in 96-well immunoplates (Maxisorp, Nunc-Immunoplate, Nalge Nunc International, Rochester, N.Y.). Each well was coated with 100 μl of a solution containing 2 μg/ml of rabbit F(ab′)2 to human IgG Fc (Jackson ImmunoResearch, West Grove, Pa.) in 50 mM carbonate buffer at pH 9.6 and incubated at 4° C. overnight. The supernatant was then discarded, the wells were washed three times in washing buffer (0.05% Tween 20 in PBS), and the plate was blocked (150 μl per well) with block buffer (0.5% BSA, 0.01% thimerosal in PBS) at room temperature for one hour. The supernatant was discarded, and the wells were washed.
# The wells were filled with 100 μl of a solution containing Flt-IgG (a chimeric Flt-human Fc molecule) at 50 ng/ml in assay buffer (0.5% BSA, 0.05% Tween 20 in PBS). The wells were incubated at room temperature for 1 hour and then washed three times in wash buffer (0.05% Tween 20 in PBS).
# as §1, with “the” for “this”, “2 hours” for “1 hour”, “g/liter,” for “gram/liter;”
# as §2
row,Molecule,Relative Binding Affinity FLT-1 Receptor
1,B3,/>15000
2,B4,/>21000
3,B5,/>1900
4,B6,/>2900
5,B7,/>12000
6,B8,/>21000
7,B9,/>35000
8,B10,/>1400
9,B11,/>14000
10,B12,/>5600
11,B13,/>14000
12,B14,/>5600
13,B15,/>2400
14,B16,/>18000
15,B17,/>10000
16,B19,/>25000
17,B20,/>8500
18,B21,/>30
19,B22,/300
